Assay results published in the DeepSol protein solubility set.

Experiment: soluble on expression in E. coli; label from the status in PepcDB or PDB records

| Sequence | soluble on expression in E. coli |
| --- | --- |
| MSLTKEAIISYLSSDLFKGVGKKTAQNIVNTLGDNAINDILDDHSVLEKVSGLSKKKQKQIAEQISANQESEKIMIRLHDLGFGPKLSMAIYQFYLGDTLTILDRNPYQLIYDIKGIGFNKADQLARNIGIAYNDNERLKAALLYTLEEECIKQGHTYLPINVVIDLTVDVLNYQDEEVIEPEKLDEMLQYLNEEKRLIIDNEQVAIPSLYYSEIKSVQNLFRIKTHTNKLTEIEQSDLQMHIGEIEDANQVNYAASQKEALQTAINSKVMLLTGGPGTGKTTVIKGIVELYAEIHGLSLDYDDYVNDDYPVVLAAPTGRASKRLQESTGLEAMTIHRLIGWNQDTKPEDILENEINARLIIIDEMSMVDTWLFHQFLSAVPLDAQLIFVGDEDQLPSVGPGQVFKDLIESKAIPRVNLTEVYRQQDGSSIIELAHRMKLGQKIDITQRFHDRSFINCQANQIPTVVEKVVTSAVNKGYTMADIQVLAPMYKGNAGIKRLNQVLQDILNPKKKDTREIEFGDVVFRKGDKVLQLVNRPNDNIFNGDIGVIVGIFWAKENALNKDVLVVDFEGNEITFTKQDMMELTHAYCTSIHKSQGSEFPIVIMPIVKQYFRMLQRPILYTGLTRAKTSLVLLGDPEAFDIGLKTNGQARLTQLCTLLKNYFNSEGHHHHHH | soluble |
| MTESDDHKLVLAISSRALFDLRDSHAVYMAEGVEAYRKYQIEHEDEILERGDAFTLVEKLLNLNASLSKARVEVVLVSRNSADTGLRVFNSIQHYGLDIARAAFAGGRSPYPYLAAFGCHLFLSTHAEDVRSALDAGFAAATILSGGARRAASAELRIAFDGDAVLFSDESERVYQSGGLAAFQASERESAREPLRGGPFKPFLAALNQLQREFPDASCPIRTALVTARSAPAHERVIRTLREWDIRLDESLFLGGLQKSAFLEAFAADVFFDDQPGHCEKAREVVATGHVPHGISNEIIPFDGGGAAALEHHHHHH | not soluble |
| AKAAGSSIGQQDTLVMLLNFKENPNDQPITSEEAHALVFGEVNDFYQENSYGKTWLSGQVAGWYTLPVSDQVCDYPSVQAEADKMARADGIVLEDYQR | not soluble |
| MANQHANHSINDFKQFVKKHPKLIKEVRKEQRSWQDVYENWVLFGESDPIWDPYREPEEASEAVPETPQKNDFVSKMVTAVKKMDVNQMNEQINKMSQSISSLQSLLNTFSGSGQKHSQPGSGQHPFSFRKDLEHHHHHH | soluble |
| MLGMSYLRYVRIIGTVHVSPQSVKEVRNIILRENPDAVAVELDYGRLLSLLNGSSLTFSQAIKLGKIGILAYLLQGVEMALGKQVGVLPGSEMIEAFEVARSLGIPIYMIDMPIQVTLKRLFSVPIEEKIRGIIEIFLSIVYPKVELNLEDYISLELEFKRKYPTVYKILVEERNEFMARNLMRIVDILLERKKKIKIIAVVGLGHKRGIERILSHYSPKSIYLEHHHHHH | not soluble |
| MWIVFDVDGVLIDTSESYDMATKLTVEYFLSHLGIKKEVSLEIIRDMRKKGVFSDDFELSEALILMYLSGEDLPKGEGVEYLRQKLGIVLDRKDIERVFNTFYLGEIYPNSIFKFEGLWRKEKRIVDIELLKKAKETYKLGIVTGRDSLEMKLAEEIIRFKFDKVVTRDMFEKPDPRALYEVTQGEEAIYIGDSKVDEELVERYRRTFKGNVTYLMVGRDVNDVNEALKKILFQSYIRLEHHHHHH | soluble |
| MGSDKIHHHHHHMRPTAIGSVCTPFVCWSCVARHGNTHVCWSCSVASVPCVTRAPVSVPGGLAAVCRTWLRRKGDLMNQGRPGVHVRVFDARVGDRVVVEPKGVGDRFMSVFVGWDAGRYLIVKMPSNLALKDHLYPDKPVVLRYLHCTGEVHGCETTIETSVAVPHRLLFLRHPESVEAVSLRKDAWVNCSVPALLRHEAGNMAGYLLDVSRGGCKVAYFEEEGLPTLAAGTEVQCSFRLPGGEQPVEVGAVVRNVAGEGGRIVCGLEFRDAPEPVVAAIGAYVDAAAFLVGTSCADRVVR | not soluble |
| MGSDKIHHHHHHMTYTPFFIHGEDRRSRWLITCDHATNTVPPEICGGDLGLAREDMERHIAYDVGAYEVSRLLGEMLAAPVIAANFSRLVIDPNRGEDDPTLLMKLYDGSIIPGNRHADAAERERRLNMCYRPYHDALARLAARPGVVLVSMHSFTRQLRGRAPRPWQIGVLHTADQRFSDPLIARLRGEADLCVGVNQPYTGVLPGDAIDTHCTAFGRPNALIELRNDLIGDPAGQHAWAERLAPLLQDALADSGL | not soluble |
| MAGHSMREHEVYSKLRAPPSSRMILRLDGRGFHRLTESLDFDRPYDEAFRDLMIRTCLDLMEEFSPSLIYTFSDEINVLLDSVPFAGRVEKLDSVFSGFASSSFTRGALEAGFSPVKPVSFDCRVIPISSDIVPEYFRSRQDESWRNCLNSYAYWTLRREVGARRAAERLRGLKSDSLHDLLFERGVNISRVPAWQRRGVGVYRVPHRVRGYNPIRDEEVSAVRMRVKVDLELPLFTDEFFEGLMRLEHHHHHH | not soluble |
| QDDSRYTKFLTQHHDAKPKGRDDRYCERMMKRRSLTSPCKDVNTFIHGNKSNIKAICGANGSPYRENLRMSKSPFQVTTCKHTGGSPRPPCQYRASAGFRHVVIACENGLPVHFDESFFSL | soluble |
| MVVFEITILGANGGPTEYGTQCFILKPARTEDPELIAVDGGAGMYQLREMLVQGRNENEGDDELVPSFYEHDREPIEFFIDSKLNIQKGLSKSLLQSLKRQGEHFESANTMKKTYEVFQGITDYYITHPHLDHISGLVVNSPSIYEQENSKKKTIWGLPHTIDVLQKHVFNDLIWPDLTAERSRKLKLKCLNPKEVQKCTIFPWDVIPFKVHHGIGVKTGAPVYSTFYIFRDRKSKDCIIVCGDVEQDRRESEESLLEEFWSYVAENIPLVHLKGILVECSCPLSSKPEQLYGHLSPIYLINELSNLNTLYNSSKGLSGLNVIVTHVKSTPAKRDPRLTILEELRFLAEERNLGDLRISIALEGHTLFL | not soluble |
| VVGNMTPDFLGSVATTLTWKDLSLNVGLDMRFGGLVASYCNLYGTQAGWTESSLQYRDPEHGGMTWTSQYADSKGIQYTDGMIPEGVFKEGTIATLVDGTKMDVSGLSYAQLVQEGKLEPTHAGSWYGNNYAWGAQTIDDIWVHKLSYIALRNITINYRLPNSISHKLGAKGLNLSFSARNLGYLYNSLPNNLNPESVRSNSASEFRIRGFEPYTASYIFTINANF | not soluble |
| GPFPPPGMSLPEYWGEEHVWWDGRAAFHGEVVRPACTLAMEDAWQIIDMGETPVRDLQNGFSGPERKFSLRLRNCEFNSQGGNLFSDSRIRVTFDGVRGETPDKFNLSGQAKGINLQIADVRGNIARAGKVMPAIPLTGNEEALDYTLRIVRNGKKLEAGNYFAVLGFRVDYE | soluble |
| MAVKLGTLLLALALGLAQPASARRKLLVFLLDGFRSDYISDEALESLPGFKEIVSRGVKVDYLTPDFPSLSYPNYYTLMTGRHCEVHQMIGNYMWDPTTNKSFDIGVNKDSLMPLWWNGSEPLWVTLTKAKRKVYMYYWPGCEVEILGVRPTYCLEYKNVPTDINFANAVSDALDSFKSGRADLAAIYHERIDVEGHHYGPASPQRKDALKAVDTVLKYMTKWIQERGLQDRLNVIIFSDHGMTDIFWMDKVIELNKYISLNDLQQVKDRGPVVSLWPAPGKHSEIYNKLSTVEHMTVYEKEAIPSRFYYKKGKFVSPLTLVADEGWFITENREMLPFWMNSTGRREGWQRGWHGYDNELMDMRGIFLAFGPDFKSNFRAAPIRSVDVYNVMCNVVGITPLPNNGSWSRVMCMLKGRAGTAPPVWPSHCALALILLFLLA | soluble |
| KANELKPIPFSQRTTPSILDLRKQQATVTQNKIRTDITRFCYGQEAHLDRALAYLGLSPSDEKRPIVTGLRETELNGAYSLILEFDSPLIPIDIWQQKHAKMTKYFAPNVEVKITQPAENRIELELIKTQ | not soluble |
| MGLYEKIVNKEEKISVIGLGYVGMPLAIAFAKYAQVIGFDVDKKKIEIYKSGIDPTKEIGNEAIKNTTVEFTSDETKLKEAKFHIVAVPTPINIDKTPDLTPVESASVIVGRNMARGSYVVYESTVYPGVTEDICIPILERESGLKCGVDFKVGYSPERINPGDKKHTLETIKKIVSAIDDESLDEIAKIYSLVIKAGVHKTSSIKVAEAAKVVENSQRDINIAFMNELAMVFDRMGIDTKEVIDAMNTKWNALGFYPGLVGGHCIGVDPYYFIYQAEKLGYHSQIILSGRKINDGMGEFIANTIIKKLIHVNKVVKKSKVVIFGITYKENCPDTRNSKVVDIIKGLNEYGIEPIVVDPQANREDTKQEYGIELMDIDDVKDADCLVFAVAHDEFKNMAWEQIEKFFKNIDNSEKVIIDVKGIFDKNKIEKLGYCYWRL | soluble |
| MGSDKIHHHHHHVLADSTGHGLSAAMPIMRVASTFRAMVSKGFSLATLIYELNSKVHRENPDDRFVACIVLEVDFYRKKIHIWNGGMPPVYIKNHLETETVSDHYPVKNIIKFKSTNMALGILPSQTFVADIATVDLPVVGHACLFSDGLIEQYTNENKPFGIETLNSLFIQYASELIPYLTENFKKVFDGKPITDDITVCTLDFERLNEWHQQNNICLARSNMDGEFDWEVKLAGPMLLSAEYLNSLNQFLGMFGFATSFCQRVFTVVAELFSNAIDHGVLKLDSRLKSDPDGFELYHSIRDSSSARLTMNDWVKVSLVWCSITNELHICVADSGQGFKGYKNTVVDIPQLSGRGLSLVKTLSKTYELVSPGNITKVIME | not soluble |
| MGHHHHHHSHMAALASSLIRQKREVREPGGSRPVSAQRRVCPRGTKSLCQKQLLILLSKVRLCGGRPARPDRGPEPQLKGIVTKLFCRQGFYLQANPDGSIQGTPEDTSSFTHFNLIPVGLRVVTIQSAKLGHYMAMNAEGLLYSSPHFTAECRFKECVFENYYVLYASALYRQRRSGRAWYLGLDKEGQVMKGNRVKKTKAAAHFLPKLLEVAMYQEPSLHSVPEASPSSPPAP | soluble |
| MNIEEFTSGLAEKGISLSPRQLEQFELYYDMLVEWNEKINLTSITEKKEVYLKHFYDSITAAFYVDFNQVNTICDVGAGAGFPSLPIKICFPHLHVTIVDSLNKRITFLEKLSEALQLENTTFCHDRAETFGQRKDVRESYDIVTARAVARLSVLSELCLPLVKKNGLFVALKAASAEEELNAGKKAITTLGGELENIHSFKLPIEESDRNIMVIRKIKNTPKKYPRKPGTPNKSPIEG | soluble |
| MAIESEVLVIGGGLGGLTSALAAAREGADVRLVSYKQSTLRQASGLVDVLGYTPDGDGPLTDPYEAIPSLPEAHPYRKVGVQTVRDALSLFDDAVPTYEGEHTDTNALLPTHGGSIKPTARYPAGASAGLASDTRDTLLVGIEEMVDFDAPHVAAHLDATGVPFDVRGETIRFPGDLRADAKVTRYAKLLDTNSEVAVRGRMVPAREALAQRVNPLLEDEERVGFPAILGDDNPGAIRDALGDHLGVDVFEVPMGPPSLPGLRLEDALFSALDEAGASIETGNPVVDFDGEDRIEKVFIEKNGAKIPNSADQYVLATGGFVGKGVESDREGVYEPVFDCHIPHAADRYDWFEGELFGDHEFARYGVATDDDLRPLDASEHSEFENLRAAGSVLGGYDFAAEKSGSGVSIATGYAAGQRAAQEARLEHHHHHH | soluble |
| MGSDKIHHHHHHMYTFQPGDHLVTNIDPLGLTEHHGLYVGHGHVIHLSKQGIIEEINLQQFAGGHSVRVKKSTLFPHQAIELARSQLGHSPYGVATNNCEHFVNECLEGSSTSNQVSNLTHIALQGSARAGLLGSSASKLATGTVANVVLTSTAIKMTGEYLGLPDNVNTLLGTPGDLVAKPAECLLKGTSQTLGETYTCLRQGEMTGAGIKLVTGSIETGLNTVLTTAEVGINGVKAGAELIADAWHWLRS | not soluble |
| MAHHHHHHMIVKVFDYIYISNVYNANDIYELIKLNIGGVLTCFDCTCIEWCHHNDTNVTNKIFYKDIFVNTKKDLIKCDVPIITNKSVNSDIIGGTHQINNYYNEQNNNYHDNTYKEFTQTHKTNIDPSQIKSDHINEERKEHYDYIIFPSDIINNTQCNNNNLKDYIKSMLILKEDAYIDFDVIHMD | not soluble |
